Reference: PMC10397247

Assays:
4H3010-bH = target: T1, 4H3010-bH; experiment: two-hybrid library CCNG1;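 note: natural log of median RNA to DNA barcode read ratio; higher means stronger binding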
T1 chain: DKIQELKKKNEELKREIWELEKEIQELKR

4H2627-bH = target: T2, 4H2627-bH; experiment: two-hybrid library CCNG1;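 note: natural log of median RNA to DNA barcode read ratio; higher means stronger binding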
T2 chain: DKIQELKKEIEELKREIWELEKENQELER

4H170-bH = target: T3, 4H170-bH; experiment: two-hybrid library CCNG1;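 note: natural log of median RNA to DNA barcode read ratio; higher means stronger binding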
T3 chain: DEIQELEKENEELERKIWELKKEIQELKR

4H2586-bH = target: T4, 4H2586-bH; experiment: two-hybrid library CCNG1;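 note: natural log of median RNA to DNA barcode read ratio; higher means stronger binding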
T4 chain: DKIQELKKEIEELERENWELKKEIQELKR

4H575-bH = target: T5, 4H575-bH; experiment: two-hybrid library CCNG1;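 note: natural log of median RNA to DNA barcode read ratio; higher means stronger binding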
T5 chain: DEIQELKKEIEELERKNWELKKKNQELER

4H4073-bH = target: T6, 4H4073-bH; experiment: two-hybrid library CCNG1;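 note: natural log of median RNA to DNA barcode read ratio; higher means stronger binding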
T6 chain: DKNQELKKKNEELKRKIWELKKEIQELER

4H797-bH = target: T7, 4H797-bH; experiment: two-hybrid library CCNG1
T7 chain: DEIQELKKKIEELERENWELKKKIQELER

4H855-bH = target: T8, 4H855-bH; experiment: two-hybrid library CCNG1
T8 chain: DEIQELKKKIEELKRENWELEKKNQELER

4H883-bN = target: T9, 4H883-bN; experiment: two-hybrid library CCNG1
T9 chain: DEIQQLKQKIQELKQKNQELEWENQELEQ

4H2673-bH = target: T10, 4H2673-bH; experiment: two-hybrid library CCNG1
T10 chain: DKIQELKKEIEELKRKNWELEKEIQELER

4H3926-bH = target: T11, 4H3926-bH; experiment: two-hybrid library CCNG1
T11 chain: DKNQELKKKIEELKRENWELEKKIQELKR

4H118-bH = target: T12, 4H118-bH; experiment: two-hybrid library CCNG1
T12 chain: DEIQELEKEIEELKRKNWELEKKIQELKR

4H2702-bH = target: T13, 4H2702-bH; experiment: two-hybrid library CCNG1
T13 chain: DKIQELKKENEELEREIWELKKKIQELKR

4H754-bH = target: T14, 4H754-bH; experiment: two-hybrid library CCNG1
T14 chain: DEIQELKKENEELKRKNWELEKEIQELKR

4H3112-bH = target: T15, 4H3112-bH; experiment: two-hybrid library CCNG1
T15 chain: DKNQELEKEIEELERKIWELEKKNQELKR

4H3961-bA = target: T16, 4H3961-bA; experiment: two-hybrid library CCNG1
T16 chain: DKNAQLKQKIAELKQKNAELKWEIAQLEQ

4H918-bH = target: T17, 4H918-bH; experiment: two-hybrid library CCNG1
T17 chain: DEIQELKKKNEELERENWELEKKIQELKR

4H1831-bH = target: T18, 4H1831-bH; experiment: two-hybrid library CCNG1
T18 chain: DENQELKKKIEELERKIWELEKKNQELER

4H3427-bH = target: T19, 4H3427-bH; experiment: two-hybrid library CCNG1
T19 chain: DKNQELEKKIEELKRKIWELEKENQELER

4H457-bH = target: T20, 4H457-bH; experiment: two-hybrid library CCNG1
T20 chain: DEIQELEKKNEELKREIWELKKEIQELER

4H780-bH = target: T21, 4H780-bH; experiment: two-hybrid library CCNG1
T21 chain: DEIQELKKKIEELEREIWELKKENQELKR

4H683-bH = target: T22, 4H683-bH; experiment: two-hybrid library CCNG1
T22 chain: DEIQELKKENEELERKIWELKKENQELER

4H968-bH = target: T23, 4H968-bH; experiment: two-hybrid library CCNG1
T23 chain: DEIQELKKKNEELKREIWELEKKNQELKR

4H346-bH = target: T24, 4H346-bH; experiment: two-hybrid library CCNG1
T24 chain: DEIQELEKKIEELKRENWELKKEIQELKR

4H953-bH = target: T25, 4H953-bH; experiment: two-hybrid library CCNG1
T25 chain: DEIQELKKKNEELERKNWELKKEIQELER

APC4100-AA = target: T26, APC4100-AA; experiment: two-hybrid library CCmax; details: mean of both orientations
T26 chain: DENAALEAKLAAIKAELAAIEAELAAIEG

APC3323-AA = target: T27, APC3323-AA; experiment: two-hybrid library CCmax; details: mean of both orientations
T27 chain: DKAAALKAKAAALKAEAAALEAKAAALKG

APC1987-AA = target: T28, APC1987-AA; experiment: two-hybrid library CCmax
T28 chain: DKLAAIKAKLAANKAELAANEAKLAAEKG

APC7524-AA = target: T29, APC7524-AA; experiment: two-hybrid library CCmax; details: mean of both orientations
T29 chain: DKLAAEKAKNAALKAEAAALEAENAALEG

APC9806-AA = target: T30, APC9806-AA; experiment: two-hybrid library CCmax; details: mean of both orientations
T30 chain: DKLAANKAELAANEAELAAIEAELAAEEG

APC2375-AA = target: T31, APC2375-AA; experiment: two-hybrid library CCmax; details: mean of both orientations
T31 chain: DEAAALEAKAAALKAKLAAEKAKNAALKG

APC2724-AA = target: T32, APC2724-AA; experiment: two-hybrid library CCmax; details: mean of both orientations
T32 chain: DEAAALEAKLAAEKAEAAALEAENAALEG

APC2543-AA = target: T33, APC2543-AA; experiment: two-hybrid library CCmax; details: mean of both orientations
T33 chain: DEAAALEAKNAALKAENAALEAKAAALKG

APC5009-AA = target: T34, APC5009-AA; experiment: two-hybrid library CCmax; details: mean of both orientations
T34 chain: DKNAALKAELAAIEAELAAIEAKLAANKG

APC542-AA = target: T35, APC542-AA; experiment: two-hybrid library CCmax; details: mean of both orientations
T35 chain: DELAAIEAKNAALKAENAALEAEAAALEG

APC2811-AA = target: T36, APC2811-AA; experiment: two-hybrid library CCmax; details: mean of both orientations
T36 chain: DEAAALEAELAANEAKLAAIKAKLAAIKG

APC8516-AA = target: T37, APC8516-AA; experiment: two-hybrid library CCmax; details: mean of both orientations
T37 chain: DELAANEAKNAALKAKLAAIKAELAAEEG

APC2556-AA = target: T38, APC2556-AA; experiment: two-hybrid library CCmax; details: mean of both orientations
T38 chain: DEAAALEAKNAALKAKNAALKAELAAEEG

APC3265-AA = target: T39, APC3265-AA; experiment: two-hybrid library CCmax; details: mean of both orientations
T39 chain: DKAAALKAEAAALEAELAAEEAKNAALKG

APC3354-AA = target: T40, APC3354-AA; experiment: two-hybrid library CCmax; details: mean of both orientations
T40 chain: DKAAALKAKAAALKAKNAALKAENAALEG

APC2474-AA = target: T41, APC2474-AA; experiment: two-hybrid library CCmax; details: mean of both orientations
T41 chain: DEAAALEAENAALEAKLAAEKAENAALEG

APC6088-AA = target: T42, APC6088-AA; experiment: two-hybrid library CCmax; details: mean of both orientations
T42 chain: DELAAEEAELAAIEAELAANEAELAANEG

APC9291-AA = target: T43, APC9291-AA; experiment: two-hybrid library CCmax; details: mean of both orientations
T43 chain: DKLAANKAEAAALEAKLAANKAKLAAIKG

APC9141-AA = target: T44, APC9141-AA; experiment: two-hybrid library CCmax; details: mean of both orientations
T44 chain: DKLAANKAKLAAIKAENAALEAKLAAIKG

APC5531-AA = target: T45, APC5531-AA; experiment: two-hybrid library CCmax; details: mean of both orientations
T45 chain: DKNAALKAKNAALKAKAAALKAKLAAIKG

APC9182-AA = target: T46, APC9182-AA; experiment: two-hybrid library CCmax; details: mean of both orientations
T46 chain: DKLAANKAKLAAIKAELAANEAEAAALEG

APC4336-AA = target: T47, APC4336-AA; experiment: two-hybrid library CCmax; details: mean of both orientations
T47 chain: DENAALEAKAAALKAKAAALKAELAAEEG

APC3881-AA = target: T48, APC3881-AA; experiment: two-hybrid library CCmax; details: mean of both orientations
T48 chain: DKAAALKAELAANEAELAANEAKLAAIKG

APC8401-AA = target: T49, APC8401-AA; experiment: two-hybrid library CCmax; details: mean of both orientations
T49 chain: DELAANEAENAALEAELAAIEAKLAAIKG

APC222-AA = target: T50, APC222-AA; experiment: two-hybrid library CCmax; details: mean of both orientations
T50 chain: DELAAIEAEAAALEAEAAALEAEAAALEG

APC2257-AA = target: T51, APC2257-AA; experiment: two-hybrid library CCmax; details: mean of both orientations
T51 chain: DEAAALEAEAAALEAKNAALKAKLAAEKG

APC2981-AA = target: T52, APC2981-AA; experiment: two-hybrid library CCmax; details: mean of both orientations
T52 chain: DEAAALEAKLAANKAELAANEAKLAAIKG

Binder: DEIQELEKEIEELKRKNWELEKKIQELKR [4H118-bH]
- interaction score (4H3010-bH): 1.94
- interaction score (4H2627-bH): 1.09
- interaction score (4H170-bH): 1.57
- interaction score (4H2586-bH): 0.817
- interaction score (4H575-bH): -0.101
- interaction score (4H4073-bH): 0.239
- interaction score (4H797-bH): -0.304
- interaction score (4H855-bH): 0.119
- interaction score (4H883-bN): 1.72
- interaction score (4H2673-bH): 1.9
- interaction score (4H3926-bH): 1.57
- interaction score (4H118-bH): 1.75
- interaction score (4H2702-bH): 0.513
- interaction score (4H754-bH): 0.181
- interaction score (4H3112-bH): 0.102
- interaction score (4H3961-bA): 1.46
- interaction score (4H918-bH): 0.604
- interaction score (4H1831-bH): -0.127
- interaction score (4H3427-bH): 1.04
- interaction score (4H457-bH): 0.505
- interaction score (4H780-bH): 0.443
- interaction score (4H683-bH): -0.584
- interaction score (4H968-bH): 1.49
- interaction score (4H346-bH): 0.654
- interaction score (4H953-bH): 0.224

Binder: DKLAAIKAKLAANKAELAANEAKLAAEKG [APC1987-AA]
- interaction score (APC4100-AA): -1.33
- interaction score (APC3323-AA): -2.07
- interaction score (APC1987-AA): -2.07
- interaction score (APC7524-AA): -1.75
- interaction score (APC9806-AA): -1.87
- interaction score (APC2375-AA): -1.68
- interaction score (APC2724-AA): -1.7
- interaction score (APC2543-AA): -2.01
- interaction score (APC5009-AA): -1.2
- interaction score (APC542-AA): -1.67
- interaction score (APC2811-AA): -1.92
- interaction score (APC8516-AA): -2.25
- interaction score (APC2556-AA): -1.78
- interaction score (APC3265-AA): -1.69
- interaction score (APC3354-AA): -1.64
- interaction score (APC2474-AA): -1.87
- interaction score (APC6088-AA): -1.6
- interaction score (APC9291-AA): -1.88
- interaction score (APC9141-AA): -1.68
- interaction score (APC5531-AA): -1.83
- interaction score (APC9182-AA): -1.95
- interaction score (APC4336-AA): -1.72
- interaction score (APC3881-AA): -1.66
- interaction score (APC8401-AA): -1.6
- interaction score (APC222-AA): -1.81
- interaction score (APC2257-AA): -1.35
- interaction score (APC2981-AA): -1.82
